From article PMC3504387 (Chemmedchem, 2012) come the findings set out here.

One may read the EC50 as the concentration at which the effect is half-maximal. Low readings indicate an effect from little substance, high ones a need for much substance.

Experiment [1] concerns the target T1, PPARγ (Gal4-PPARγ LBD, transactivation) (Mus musculus, UniProt P37238).
T1 construct: gene Pparg
T1 sequence (P37238 204-505): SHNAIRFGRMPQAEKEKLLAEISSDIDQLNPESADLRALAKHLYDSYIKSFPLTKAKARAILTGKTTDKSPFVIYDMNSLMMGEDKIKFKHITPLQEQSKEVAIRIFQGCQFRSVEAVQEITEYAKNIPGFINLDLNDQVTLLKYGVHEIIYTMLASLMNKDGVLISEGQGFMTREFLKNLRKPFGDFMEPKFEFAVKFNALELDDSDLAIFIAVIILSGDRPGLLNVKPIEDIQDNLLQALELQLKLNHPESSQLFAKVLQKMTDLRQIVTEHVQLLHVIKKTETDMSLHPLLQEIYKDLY
Description: Gal4-LBD luciferase transactivation, BHK21 cells. The experiment is classed as cell-based. The settings on record: agonist; […] h, […] °C; unreliable.

Experiment [2] addresses T2, PPARδ (Gal4-PPARδ LBD, transactivation) (Homo sapiens, UniProt Q03181).
T2 construct: gene PPARD
T2 sequence (Q03181 139-441): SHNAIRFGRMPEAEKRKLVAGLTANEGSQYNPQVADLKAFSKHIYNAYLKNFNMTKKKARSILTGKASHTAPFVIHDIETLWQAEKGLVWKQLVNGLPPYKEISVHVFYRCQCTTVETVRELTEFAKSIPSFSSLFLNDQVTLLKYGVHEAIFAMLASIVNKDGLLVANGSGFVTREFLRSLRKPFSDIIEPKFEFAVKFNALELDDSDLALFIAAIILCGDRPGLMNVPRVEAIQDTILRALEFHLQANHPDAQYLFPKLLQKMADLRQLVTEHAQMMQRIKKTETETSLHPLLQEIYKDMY
Description: Gal4-LBD luciferase transactivation, BHK21 cells. In kind it is cell-based. Conditions: agonist; […] h, […] °C; unreliable.

Experiment [3] addresses T3, GST–PPARα (ligand binding domain, TR-FRET) (Homo sapiens, UniProt Q07869).
T3 construct: gene PPARA
T3 sequence (Q07869 196-468 limits assumed): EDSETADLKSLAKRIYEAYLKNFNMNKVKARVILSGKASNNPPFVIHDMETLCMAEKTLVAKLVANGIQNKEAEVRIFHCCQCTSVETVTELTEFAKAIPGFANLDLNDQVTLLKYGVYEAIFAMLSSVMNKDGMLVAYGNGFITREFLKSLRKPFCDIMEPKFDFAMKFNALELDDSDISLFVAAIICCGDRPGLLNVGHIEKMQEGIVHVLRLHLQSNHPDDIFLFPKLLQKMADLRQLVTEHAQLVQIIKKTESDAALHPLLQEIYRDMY
Put plainly: TR-FRET cofactor peptide recruitment.

In experiment [4] the target is T4, GST–PPARα fusion protein (purified ligand binding domain of PPARα).
T4 sequence (Q07869 whole entry, species assumed, looked up): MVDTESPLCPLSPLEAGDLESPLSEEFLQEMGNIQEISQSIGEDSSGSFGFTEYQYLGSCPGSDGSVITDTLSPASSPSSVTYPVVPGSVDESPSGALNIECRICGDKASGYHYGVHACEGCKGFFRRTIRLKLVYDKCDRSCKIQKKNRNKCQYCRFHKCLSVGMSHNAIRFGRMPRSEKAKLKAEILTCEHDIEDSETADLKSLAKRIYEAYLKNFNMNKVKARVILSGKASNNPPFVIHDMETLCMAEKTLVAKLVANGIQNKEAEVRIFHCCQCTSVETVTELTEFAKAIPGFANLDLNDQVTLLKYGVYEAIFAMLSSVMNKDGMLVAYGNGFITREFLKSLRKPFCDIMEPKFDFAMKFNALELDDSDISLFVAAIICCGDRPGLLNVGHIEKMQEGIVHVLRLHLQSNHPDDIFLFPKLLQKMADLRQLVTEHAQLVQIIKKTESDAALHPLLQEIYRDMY
Description: FRET or BRET; homogeneous TR-FRET as a1, 12-concentration dose–response of fenofibric acid; the EC50 is of the compound; delta ratio in % of the reference compound RO4899100 at 10 μM.

The target of experiment [5] is T5, GST–PPARγ fusion protein (purified ligand binding domain of PPARγ).
T5 chain: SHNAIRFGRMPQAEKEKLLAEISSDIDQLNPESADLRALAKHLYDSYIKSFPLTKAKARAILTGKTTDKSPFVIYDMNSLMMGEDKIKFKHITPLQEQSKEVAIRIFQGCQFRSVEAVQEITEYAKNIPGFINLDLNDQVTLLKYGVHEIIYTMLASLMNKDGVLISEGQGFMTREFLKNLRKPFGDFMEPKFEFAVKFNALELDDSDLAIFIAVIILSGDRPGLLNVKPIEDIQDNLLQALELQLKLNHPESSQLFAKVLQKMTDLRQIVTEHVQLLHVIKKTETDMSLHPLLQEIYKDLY
Put plainly: FRET or BRET; homogeneous TR-FRET as a1, 12-concentration dose–response of farglitazar; the EC50 is of the compound; delta ratio in % of the reference compound edaglitazone at 10 μM. The settings on record: both partners purified. A general note: Bioluminescence resonance energy transfer reports proximity on the nanometre scale.

For experiment [6], the target named is T4, GST–PPARα fusion protein (purified ligand binding domain of PPARα). Put plainly: FRET or BRET; homogeneous TR-FRET as a1, 12-concentration dose–response of RO4899100; the EC50 is of the compound; delta ratio in % of the reference compound at 10 μM (RO4899100 for PPARα, edaglitazone for PPARγ).
Experiment [7] shares this target. Put plainly: FRET or BRET; homogeneous TR-FRET as a1, 12-concentration dose–response of aleglitazar; the EC50 is of the compound; delta ratio in % of the reference compound at 10 μM (RO4899100 for PPARα, edaglitazone for PPARγ).
Experiment [8] has the same target. Put plainly: FRET or BRET; homogeneous TR-FRET as a1, 12-concentration dose–response of edaglitazone; the EC50 is of the compound; delta ratio in % of the reference compound at 10 μM (RO4899100 for PPARα, edaglitazone for PPARγ).
The target is the same in experiment [9]. Description: FRET or BRET; homogeneous TR-FRET as a1, 12-concentration dose–response of muraglitazar; the EC50 is of the compound; delta ratio in % of the reference compound at 10 μM (RO4899100 for PPARα, edaglitazone for PPARγ).
Experiment [10] has the same target. Description: FRET or BRET; homogeneous TR-FRET as a1, 12-concentration dose–response of pioglitazone; the EC50 is of the compound; delta ratio in % of the reference compound at 10 μM (RO4899100 for PPARα, edaglitazone for PPARγ).
Experiment [11] shares this target. Put plainly: FRET or BRET; homogeneous TR-FRET as a1, 12-concentration dose–response of tesaglitazar; the EC50 is of the compound; delta ratio in % of the reference compound at 10 μM (RO4899100 for PPARα, edaglitazone for PPARγ).
The target is the same in experiment [12]. Description: FRET or BRET; homogeneous TR-FRET as a1, 12-concentration dose–response of rosiglitazone; the EC50 is of the compound; delta ratio in % of the reference compound at 10 μM (RO4899100 for PPARα, edaglitazone for PPARγ).
Experiment [13] concerns the target T5, GST–PPARγ fusion protein (purified …). Description: FRET or BRET; homogeneous TR-FRET as a1, 12-concentration dose–response of aleglitazar; the EC50 is of the compound; delta ratio in % of the reference compound at 10 μM (RO4899100 for PPARα, edaglitazone for PPARγ). The settings on record: both partners purified.
For experiment [14] the target is unchanged. Description: FRET or BRET; homogeneous TR-FRET as a1, 12-concentration dose–response of edaglitazone; the EC50 is of the compound; delta ratio in % of the reference compound at 10 μM (RO4899100 for PPARα, edaglitazone for PPARγ). Conditions: both partners purified.
Experiment [15] shares this target. Put plainly: FRET or BRET; homogeneous TR-FRET as a1, 12-concentration dose–response of muraglitazar; the EC50 is of the compound; delta ratio in % of the reference compound at 10 μM (RO4899100 for PPARα, edaglitazone for PPARγ). Conditions: both partners purified.
Experiment [16] has the same target. Description: FRET or BRET; homogeneous TR-FRET as a1, 12-concentration dose–response of pioglitazone; the EC50 is of the compound; delta ratio in % of the reference compound at 10 μM (RO4899100 for PPARα, edaglitazone for PPARγ). Conditions: both partners purified.
The target is the same in experiment [17]. Put plainly: FRET or BRET; homogeneous TR-FRET as a1, 12-concentration dose–response of tesaglitazar; the EC50 is of the compound; delta ratio in % of the reference compound at 10 μM (RO4899100 for PPARα, edaglitazone for PPARγ). The settings on record: both partners purified.
The target is the same in experiment [18]. Description: FRET or BRET; homogeneous TR-FRET as a1, 12-concentration dose–response of rosiglitazone; the EC50 is of the compound; delta ratio in % of the reference compound at 10 μM (RO4899100 for PPARα, edaglitazone for PPARγ). Conditions: both partners purified.

Where no end group is shown, it is not given here. The star is where a group is joined. Biotin = O=C1N[C@H]2[C@H](CS[C@H]2CCCCC(=O)*)N1; Ahx = NCCCCCC(=O)O

For `CC(C)(Oc1ccc(C(=O)c2ccc(Cl)cc2)cc1)C(=O)O` [Fenofibric acid], the “PPARδ / EC50” value in experiment [1] came to 1470 nM. In addition, the “EC50” value in experiment [2] is reported as 1060 nM.

On to `Cc1nc(-c2ccc(C(F)(F)F)cc2)ccc1CN(C)C(=O)c1cccc(OC(C)(C)C(=O)O)c1` [RO4899100, 2-methyl-2-(3-{methyl-[2-methyl-6-(4-trifluoromethyl-phenyl)pyridin-3-ylmethyl]carbamoyl}phenoxy)propionic acid], for which, in experiment [1], the “PPARδ / EC50 [nM]” value is recorded as 19 900 nM.

The molecule `Cc1oc(-c2ccccc2)nc1CCOc1ccc(CC2SC(=O)NC2=O)c2sccc12` (centres unmarked) [Edaglitazone] yielded an EC50 in experiment [3] of 1050 nM.

B1: NCoR ID2 cofactor peptide (nuclear receptor co-repressor, interaction domain 2) (peptide)
peptide: {Biotin-Ahx}-ADPASNLGLEDIIRKALMGSF
notes: nuclear receptor co-repressor (NCoR), ID2; also called NCoR2; NcoR2; source: synthetic peptide (Jerini or Biosynthan, Berlin)
On to B1, for which, in experiment [4], the EC50 of fenofibric acid for displacement is 1900 nM and the delta ratio with fenofibric acid is -55%. In addition, the “EC50 of farglitazar for displacement” value in experiment [5] came to 13.6 nM. Besides, in experiment [6], the EC50 of RO4899100 for displacement came out at 18.5 nM. In addition, in [7], the EC50 of aleglitazar for displacement is 1.7 nM and the delta ratio with aleglitazar is -61%. In addition, in [8], the EC50 of edaglitazone for displacement amounted to 1950 nM and the delta ratio with edaglitazone was -44%. Also, in experiment [9], the EC50 of muraglitazar for displacement worked out at 139 nM and the delta ratio with muraglitazar was -50%. Moreover, in experiment [10], the EC50 of pioglitazone for displacement is 3220 nM and the delta ratio with pioglitazone is -54%. For the same molecule, in experiment [11], the EC50 of tesaglitazar for displacement came to 646 nM and the delta ratio with tesaglitazar is -54%. In addition, in [12], the EC50 of rosiglitazone for displacement worked out at 3000 nM and the delta ratio with rosiglitazone is -31%. Besides, the “EC50 of aleglitazar for displacement” value in [13] was 15.3 nM. Also, the “EC50 of edaglitazone for displacement” value in experiment [14] amounted to 57.1 nM. Besides, the “EC50 of muraglitazar for displacement” value in experiment [15] was determined as 63.4 nM. Also, the “EC50 of pioglitazone for displacement” value in experiment [16] turned out to be 9420 nM. For the same molecule, the “EC50 of tesaglitazar for displacement” value in experiment [17] was found to be 537 nM. In addition, the “EC50 of rosiglitazone for displacement” value in [18] is 497 nM.
